Test results published in patent US20230220057A1 (STAIDSON BEIJING BIOPHARMACEUTICALS, published 2023).

Legend:
[1] = molecular target: human NGF (R&D system) (human, UniProt P01138 122-241); experiment: cell-based or functional assay
[2] = molecular target: T1, human NGF-Fc4 (IgG4-Fc) (human, UniProt P01138 122-241, limits assumed); experiment: competition ELISA: antibody pre-incubated with human NGF-Fc4, binding to coated TrkA-Fc
T1 construct: not shown: human IgG4 Fc
Protocol: TrkA inhibition ELISA assay: The TrkA inhibition ELISA assay was designed to identify the anti-NGF antibodies that have the capability of blocking NGF binding to its receptor TrkA. In this assay, human TrkA-Fc (IgG1-Fc, Sinobiological) was coated at 1 μg/ml in the 96-well plates and incubated overnight at 4° C. Antibodies, from cell culture supernatants or after purified, in different dilutions, were pre-incubated with human NGF-Fc4 (IgG4-Fc) at a final concentration of 70 ng/mL for 2 hours in 37° C. A total of 50 μl of the reaction mixtures were then transferred into the TrkA-Fc coated 96-well plates and incubated in room temperature for 2 hours. After washing, a secondary mouse anti-human IgG4-AP (Southern biotech) was added at a dilution of 1:1000 After one hour in room temperature, the plates were washed, and after adding PNPP substrate, ODs at 405 nm were read.
TrkA inhibition ELISA assay: The optimized anti-NGF antibodies Ab4, Ab6, Ab10, Ab16, Ab36, Ab37, Ab44, Ab45, Ab46, Ab47, Ab48, Ab49, Ab52, Ab54, Ab55, Ab56, Ab57, Ab58, Ab59, Ab60, Ab61 and the reference antibody Tanezumab (Pfizer), a humanized antibody from mouse hybridoma were further analyzed for their abilities to block NGF binding to its receptor TrkA. TrkA inhibition assay was performed as described in Example 1.

[3] = molecular target: recombinantly produced human-NGF (human, UniProt P01138 122-241, limits assumed); experiment: ELISA, human NGF coated, IgG titrated
Protocol: NGF binding ELISA assay: In human NGF binding ELISA, Corning 3366 high binding 96 well plates were coated with recombinantly produced human-NGF at 1 μg per ml, 50 μl/well in 1×PBS, and incubated overnight at 4° C. The plates were washed and blocked with 250 μl of 1×PBS/1% BSA at least 30 minutes at room temperature. 50 μl of culture supernatants, after 1:1 diluted by the PBS/BSA diluent, or the purified antibodies diluted serially from a certain concentration with the diluent, were added per well, and incubated at 37° C. for 2 hours. After washing, a secondary antibody, goat anti-human IgG Fc AP (Southern biotech) was applied at a dilution of 1:3000 in PBS/BSA. The plates were incubated for 1 hour at RT and washed. After adding the PNPP substrate, the ODs at 405 nm were read.
NGF binding ELISA assay: NGF binding ELISA assay was performed as described in Example 1.

T1 sequence (P01138 122-241 limits assumed): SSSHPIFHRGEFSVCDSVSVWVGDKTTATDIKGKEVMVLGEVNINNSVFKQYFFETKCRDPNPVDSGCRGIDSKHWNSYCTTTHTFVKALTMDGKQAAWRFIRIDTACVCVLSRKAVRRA
Chain of recombinantly produced human-NGF (P01138 122-241 limits assumed): as above
Chain of human NGF (R&D system) (P01138 122-241 limits assumed): as above

TF1 Cell Proliferation Inhibition Assay IC50 [1] | IC50 [2] | EC50 [3] | Binder
– | 0.0434 µg/mL | 0.00896 ng/mL | Ab60 (antibody, human IgG1, V domains shown) VH: EVQLVQSGAEVKKPGESLKISCKISGYSFITYWISWVRQMPGKGLEWMGAIDPSDSDARYSPSFQGQVTISADKSISTAYLQWSSLKASDTAMYYCAKSDPGYSGYSLLYGFDSWGQGTLVTVSS VL: DIVMTQSPLSLPVTLGQPASISCRSSQSLVQRNGNTYLSWFQQRPGQPPRLLIYQVSNRYSGVPDRFSGSGSGTDFTLKISRVEAEDVGVYYCGQGAHLPLTFGQGTKVEIK
184 pM | 0.0757 µg/mL | 0.0185 ng/mL | Ab55 (antibody, human IgG1, V domains shown) VH: EVQLVQSGAEVKKPGESLKISCKISGYSFITYWISWVRQMPGKGLEWMGAIDPSDSDARYSPSFQGQVTISADKSISTAYLQWSSLKASDTAMYYCAKSDPGYSGYSLLYGFDSWGQGTLVTVSS VL: DVVMTQSPLSLPVTLGQPASISCRSSQSLVQRNGNTYLSWYQQRPGQPPRLLIYQVSNRYSGVPDRFSGSGSGTDFTLKISRVEAEDVGVYYCGQGAHLPLTFGQGTKVEIK
– | 0.0732 µg/mL | 0.011 ng/mL | Ab57 (antibody, human IgG1, V domains shown) VH: EVQLVQSGAEVKKPGESLKISCKISGYSFITYWISWVRQMPGKGLEWMGAIDPSDSDARYSPSFQGQVTISADKSISTAYLQWSSLKASDTAMYYCAKSDPGYSGYSLLYGFDSWGQGTLVTVSS VL: DIVMTQSPLSLPVTLGQPASISCRSSQSLVQRNGNTYLSWFQQRPGQSPRLLIYQVSNRYSGVPDRFSGSGSGTDFTLKISRVEAEDVGVYYCGQGAHLPLTFGQGTKVEIK
– | 0.0935 µg/mL | 0.0156 ng/mL | Ab48 (antibody, human IgG1, V domains shown) VH: EVQLVQSGAEVKKPGESLKISCKGSGYSFITYWISWVRQMPGKGLEWMGAIDPSDSDARYSPSFQGQVTISADKSISTAYLQWSSLKASDTAMYYCAKSDPGYSGYSLLYGFDSWGQGTLVTVSS VL: DIVMTQSPLSLPVTLGQPASISCRSSQSLVQRNGNTYLSWYQQRPGQSPRLLIYQVSNRYSGVPDRFSGSGSGTDFTLKISRVEAEDVGVYYCGQGAHLPLTFGQGTKVEIK
– | 0.0702 µg/mL | 0.0206 ng/mL | Ab52 (antibody, human IgG1, V domains shown) VH: EVQLVQSGAEVKKPGESLKISCKISGYSFITYWISWVRQMPGKGLEWMGAIDPSDSDARYSPSFQGQVTISADKSISTAYLQWSSLKASDTAMYYCAKSDPGYSGYSLLYGFDSWGQGTLVTVSS VL: DIVMTQTPLSSPVTLGQPASISCRSSQSLVQRNGNTYLSWYQQRPGQPPRLLIYQVSNRYSGVPDRFSGSGAGTDFTLKISRVEAEDVGVYYCGQGAHLPLTFGQGTKVEIK
– | 0.0665 µg/mL | 0.0145 ng/mL | Ab56 (antibody, human IgG1, V domains shown) VH: EVQLVQSGAEVKKPGESLKISCKISGYSFITYWISWVRQMPGKGLEWMGAIDPSDSDARYSPSFQGQVTISADKSISTAYLQWSSLKASDTAMYYCAKSDPGYSGYSLLYGFDSWGQGTLVTVSS VL: DVVMTQSPLSLPVTLGQPASISCRSSQSLVQRNGNTYLSWFQQRPGQPPRLLIYQVSNRYSGVPDRFSGSGSGTDFTLKISRVEAEDVGVYYCGQGAHLPLTFGQGTKVEIK
– | 0.08 µg/mL | 0.0153 ng/mL | Ab58 (antibody, human IgG1, V domains shown) VH: EVQLVQSGAEVKKPGESLKISCKISGYSFITYWISWVRQMPGKGLEWMGAIDPSDSDARYSPSFQGQVTISADKSISTAYLQWSSLKASDTAMYYCAKSDPGYSGYSLLYGFDSWGQGTLVTVSS VL: DIVMTQSPLSLPVTLGQPASISCRSSQSLVQRNGNTYLSWYQQRPGQSPRLLIYQVSNRYSGVPDRFSGSGSGTDFTLKISRVEAEDVGVYYCGQGAHLPLTFGQGTKVEIK

Continued, binder first:

Binder | TF1 Cell Proliferation Inhibition Assay IC50 [1] | IC50 [2] | EC50 [3]
Ab16 (antibody, human IgG1, V domains shown) VH: EVQLVQSGAEVKKPGATVKISCKVSGYSFITYWISWVQQAPGKGLEWMGAIDPSDSDARYSPSFQGRVTITADTSTDTAYMELSSLRSEDTAVYYCAKSDPGYSGYSLLYGFDSWGQGTLVTVSS VL: DVVMTQSPLSLPVTLGQPASISCRSSQSLVQRNGNTYLSWFQQRPGQPPRLLIYQVSNRYSGVPDRFSGSGSGTDFTLKISRVEAEDVGVYYCGQGAHLPLTFGQGTKVEIK | 300 pM | 0.0735 µg/mL | 0.0173 ng/mL
Ab49 (antibody, human IgG1, V domains shown) VH: EVQLVQSGAEVKKPGESLKISCKGSGYSFITYWISWVRQMPGKGLEWMGAIDPSDSDARYSPSFQGQVTISADKSISTAYLQWSSLKASDTAMYYCAKSDPGYSGYSLLYGFDSWGQGTLVTVSS VL: DIVMTQSPLSLPVTLGQPASISCRSSQSLVQRNGNTYLSWYQQRPGQPPRLLIYQVSNRYSGVPDRFSGSGSGTDFTLKISRVEAEDVGVYYCGQGAHLPLTFGQGTKVEIK | – | 0.0878 µg/mL | 0.00957 ng/mL
Ab59 (antibody, human IgG1, V domains shown) VH: EVQLVQSGAEVKKPGESLKISCKISGYSFITYWISWVRQMPGKGLEWMGAIDPSDSDARYSPSFQGQVTISADKSISTAYLQWSSLKASDTAMYYCAKSDPGYSGYSLLYGFDSWGQGTLVTVSS VL: DIVMTQSPLSLPVTLGQPASISCRSSQSLVQRNGNTYLSWYQQRPGQPPRLLIYQVSNRYSGVPDRFSGSGSGTDFTLKISRVEAEDVGVYYCGQGAHLPLTFGQGTKVEIK | – | 0.0747 µg/mL | 0.0122 ng/mL
Ab45 (antibody, human IgG1, V domains shown) VH: EVQLVQSGAEVKKPGESLKISCKGSGYSFITYWISWVRQMPGKGLEWMGAIDPSDSDARYSPSFQGQVTISADKSISTAYLQWSSLKASDTAMYYCAKSDPGYSGYSLLYGFDSWGQGTLVTVSS VL: DVVMTQSPLSLPVTLGQPASISCRSSQSLVQRNGNTYLSWYQQRPGQPPRLLIYQVSNRYSGVPDRFSGSGSGTDFTLKISRVEAEDVGVYYCGQGAHLPLTFGQGTKVEIK | – | 0.0898 µg/mL | 0.0166 ng/mL
Ab37 (antibody, human IgG1, V domains shown) VH: EVQLVQSGAEVKKPGATVKISCKVSGYTFITYWISWVQQAPGKGLEWMGAIDPSDSDARYSPSFQGRVTITADKSTDTAYMELSSLRSEDTAVYYCAKSDPGYSGYSLLYGFDSWGQGTLVTVSS VL: DIVMTQSPLSLPVTLGQPASISCRSSQSLVQRNGNTYLSWFQQRPGQSPRLLIYQVSNRYSGVPDRFSGSGSGTDFTLKISRVEAEDVGVYYCGQGAHLPLTFGQGTKVEIK | 257 pM | 0.132 µg/mL | 0.0317 ng/mL
Ab42 (antibody, human IgG1, V domains shown) VH: EVQLVQSGAEVKKPGESLKISCKGSGYSFITYWISWVRQMPGKGLEWMGAIDPSDSDARYSPSFQGQVTISADKSISTAYLQWSSLKASDTAMYYCAKSDPGYSGYSLLYGFDSWGQGTLVTVSS VL: DIVMTQTPLSSPVTLGQPASISCRSSQSLVQRNGNTYLSWYQQRPGQPPRLLIYQVSNRYSGVPDRFSGSGAGTDFTLKISRVEAEDVGVYYCGQGAHLPLTFGQGTKVEIK | – | 0.0773 µg/mL | 0.0132 ng/mL
Ab10 (antibody, human IgG1, V domains shown) VH: EVQLVQSGAEVKKPGATVKISCKVSGYTFITYWISWVQQAPGKGLEWMGAIDPSDSDARYSPSFQGRVTITADTSTDTAYMELSSLRSEDTAVYYCAKSDPGYSGYSLLYGFDSWGQGTLVTVSS VL: DIVMTQSPLSLPVTLGQPASISCRSSQSLVQRNGNTYLSWFQQRPGQPPRLLIYQVSNRYSGVPDRFSGSGSGTDFTLKISRVEAEDVGVYYCGQGAHLPLTFGQGTKVEIK | 254 pM | 0.0804 µg/mL | 0.0134 ng/mL
Ab47 (antibody, human IgG1, V domains shown) VH: EVQLVQSGAEVKKPGESLKISCKGSGYSFITYWISWVRQMPGKGLEWMGAIDPSDSDARYSPSFQGQVTISADKSISTAYLQWSSLKASDTAMYYCAKSDPGYSGYSLLYGFDSWGQGTLVTVSS VL: DIVMTQSPLSLPVTLGQPASISCRSSQSLVQRNGNTYLSWFQQRPGQSPRLLIYQVSNRYSGVPDRFSGSGSGTDFTLKISRVEAEDVGVYYCGQGAHLPLTFGQGTKVEIK | – | 0.0662 µg/mL | 0.00942 ng/mL
Ab46 (antibody, human IgG1, V domains shown) VH: EVQLVQSGAEVKKPGESLKISCKGSGYSFITYWISWVRQMPGKGLEWMGAIDPSDSDARYSPSFQGQVTISADKSISTAYLQWSSLKASDTAMYYCAKSDPGYSGYSLLYGFDSWGQGTLVTVSS VL: DVVMTQSPLSLPVTLGQPASISCRSSQSLVQRNGNTYLSWFQQRPGQPPRLLIYQVSNRYSGVPDRFSGSGSGTDFTLKISRVEAEDVGVYYCGQGAHLPLTFGQGTKVEIK | – | 0.0533 µg/mL | 0.0169 ng/mL
